# In paper PMC8472933:
# Tests used:
# [1] = target: Menangle virus P protein C-terminal region, P209-388 (coiled-coil, linker and binding domain) (Menangle virus); assay: SEC-MALLS
# [2] = target: Menangle virus P protein C-terminal region, P209-388 (coiled-coil, linker and binding domain) (Menangle virus); assay: AUC
substance,measurement,setting,value
"Menangle virus P protein C-terminal region, P209-388 (coiled-coil, linker and binding domain) (domain or fragment)",stoichiometry N,[1],4
same,Kd,[2],58 nM
same,stoichiometry N,[2],4
